How the values were obtained:
[1] = biological target: T1, LRRC15 on the surface of LRRC15+ cells (SAOS-2, U87MG) (UniProt Q8TF66 22-581, limits assumed); assay: cell-based or functional assay
T1 sequence (looked up): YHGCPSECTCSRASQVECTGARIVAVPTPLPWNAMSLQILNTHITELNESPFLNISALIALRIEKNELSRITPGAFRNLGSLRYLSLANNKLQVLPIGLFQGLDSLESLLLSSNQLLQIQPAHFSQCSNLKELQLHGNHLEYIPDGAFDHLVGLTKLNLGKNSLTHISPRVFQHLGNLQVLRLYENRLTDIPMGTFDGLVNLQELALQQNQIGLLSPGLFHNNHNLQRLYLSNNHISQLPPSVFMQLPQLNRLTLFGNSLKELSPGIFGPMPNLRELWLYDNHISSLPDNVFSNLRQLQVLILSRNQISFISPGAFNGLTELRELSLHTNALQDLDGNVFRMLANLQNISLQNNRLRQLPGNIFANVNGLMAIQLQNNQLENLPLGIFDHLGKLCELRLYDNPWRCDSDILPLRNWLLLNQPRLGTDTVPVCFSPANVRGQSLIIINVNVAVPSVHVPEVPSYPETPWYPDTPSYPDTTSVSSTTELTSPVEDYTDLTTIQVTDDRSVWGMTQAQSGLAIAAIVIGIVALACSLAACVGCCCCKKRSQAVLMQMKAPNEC

[2] = biological target: T2, LRRC15 on LRRC15 positive cell lines SAOS2 and G292 (UniProt Q8TF66 22-581, limits assumed); assay: cell binding on G292 cells (LRRC15 positive), pH 7.4; set-up: unit not given here
T2 construct: whole, on cells
T2 sequence (looked up): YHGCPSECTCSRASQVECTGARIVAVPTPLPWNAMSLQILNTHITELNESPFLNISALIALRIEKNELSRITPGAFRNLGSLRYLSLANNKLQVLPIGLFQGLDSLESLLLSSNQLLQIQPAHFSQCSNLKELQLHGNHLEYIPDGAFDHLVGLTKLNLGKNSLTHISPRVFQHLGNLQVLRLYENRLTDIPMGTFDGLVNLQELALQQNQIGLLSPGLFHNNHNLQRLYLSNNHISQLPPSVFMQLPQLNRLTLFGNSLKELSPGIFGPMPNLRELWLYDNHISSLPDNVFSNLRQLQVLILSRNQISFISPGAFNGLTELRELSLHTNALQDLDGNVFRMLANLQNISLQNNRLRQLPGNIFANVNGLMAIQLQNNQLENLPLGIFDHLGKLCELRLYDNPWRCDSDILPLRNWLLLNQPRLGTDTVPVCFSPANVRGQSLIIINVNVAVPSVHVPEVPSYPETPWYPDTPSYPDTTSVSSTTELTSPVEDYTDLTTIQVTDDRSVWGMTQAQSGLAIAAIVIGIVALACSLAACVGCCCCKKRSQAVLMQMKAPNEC

[3] = biological target: T2, LRRC15 on LRRC15 positive cell lines …; assay: cell binding on SAOS2 cells (LRRC15 positive), pH 7.4; set-up: unit not given here

B1: MYT8483-c-ADC (antibody, human IgG1, kappa, V domains shown)
VH: EVQLVESGGGLVQPGGSLRLSCTASGFSFSGSYWICWVRQAPGKGLEWVGCINGGSLDITYYASWAKGRFTISRDTSKNTVYLQKTSLRAEDTAVYYCASDTSYTAYGNFYFNLWGQGTLVTVSS
VL: EIVMTQSPSPLSASVGDRVIITCQSSQSVLNNNWLAWYQQKPGKAPKLLIYDASSLASGVPSRFSGSGSGAEFTLTISSLQPDDFATYYCQGEFSCGSADCNAFGQGTKLTVLR
modifications: vcMMAE conjugated to the cysteine at position 205 of the light chain
- 20 nM Efficacy (cytotoxicity of candidates against SAOS-2 cells) [1]: 29.4

B2: MYT9776-c-ADC (antibody, human IgG1, kappa, V domains shown)
VH: EVQLVESGGGLVQPGGSLRLSCTASGFSFSGHYWICWVRQAPGKGLEWVGCIHGGSHDITYYASWAKGRFTISRDTSKNTVYLQKTSLRAEDTAVYYCASDTSYTAYGNFYFNLWGQGTLVTVSS
VL: EIVMTQSPSPLSASVGDRVIITCQSSQSVLNNNWLAWYQQKPGKAPKLLIYDASSLASGVPSRFSGSGSGAEFTLTISSLQPDDFATYYCQGEFSCGSADCNAFGQGTKLEIKR
modifications: vcMMAE conjugated to the cysteine at position 205 of the light chain
- 20 nM Efficacy (cytotoxicity of candidates against SAOS-2 cells) [1]: 66.3

B3: MYT8391 (antibody, V domains shown)
VH: EVQLVESGGGLVQPGGSLRLSCTASGLDFRRTNYICWVRQAPGKGLEWVGCIYIADVVHYYASWAKGRFTFSRDTSKNTVYLQMNSLRAEDTAVYYCARGADGGFHYGMDLWGQGTLVTVSS
VL: EIVMTQSPSTLSASVGDRVIITCQASQSIGNYLSWYQQKPGKAPKRLIYSASTLPSGVPSRFSGSGSGAEFTLTISSLQPDDFATYYCQNNYWLAGYGHPFGQGTKLTVL
notes: Humanized 15G7 variant (HC descriptor V106H); also called hu 15G7 HC his variant; hu 15G7 HC his scan variant
- Affinity [2]: 0.336
- Affinity [3]: 0.483

B4: MYT8415 (antibody, V domains shown)
VH: EVQLVESGGGLVQPGGSLRLSCTASGLDFRRTNYICWVRQAPGKGLEWVGCIYIADVVHYYASWAKGRFTFSRDTSKNTVYLQMNSLRAEDTAVYYCARGADGGFVYGMDLWGQGTLVTVSS
VL: EIVMTQSPSTLSASVGDRVIITCQASQSIGNYLSWYQQKPGKAPKRLIYSASTLPSGVPSRFSGSGSGAEFTLTISSLQPDDFATYYCQNNHWLAGYGHPFGQGTKLTVL
notes: Humanized 15G7 variant (LC descriptor Y108H); also called hu 15G7 LC his variant
- Affinity [2]: 1.11
- Affinity [3]: 0.754

B5: MYT8416 (antibody, V domains shown)
VH: EVQLVESGGGLVQPGGSLRLSCTASGLDFRRTNYICWVRQAPGKGLEWVGCIYIADVVHYYASWAKGRFTFSRDTSKNTVYLQMNSLRAEDTAVYYCARGADGGFVYGMDLWGQGTLVTVSS
VL: EIVMTQSPSTLSASVGDRVIITCQASQSIGNYLSWYQQKPGKAPKRLIYSASTLPSGVPSRFSGSGSGAEFTLTISSLQPDDFATYYCQNNYHLAGYGHPFGQGTKLTVL
notes: Humanized 15G7 variant (LC descriptor W109H); also called hu 15G7 LC his variant
- Affinity [2]: 1.37
- Affinity [3]: 1.15

B6: MYT8417 (antibody, V domains shown)
VH: EVQLVESGGGLVQPGGSLRLSCTASGLDFRRTNYICWVRQAPGKGLEWVGCIYIADVVHYYASWAKGRFTFSRDTSKNTVYLQMNSLRAEDTAVYYCARGADGGFVYGMDLWGQGTLVTVSS
VL: EIVMTQSPSTLSASVGDRVIITCQASQSIGNYLSWYQQKPGKAPKRLIYSASTLPSGVPSRFSGSGSGAEFTLTISSLQPDDFATYYCQNNYWLAHYGHPFGQGTKLTVL
notes: Humanized 15G7 variant (LC descriptor G112H); also called hu 15G7 LC his variant
- Affinity [2]: 0.76
- Affinity [3]: 0.554

B7: MYT8483 (antibody, IgG1, V domains shown)
VH: EVQLVESGGGLVQPGGSLRLSCTASGFSFSGSYWICWVRQAPGKGLEWVGCINGGSLDITYYASWAKGRFTISRDTSKNTVYLQKTSLRAEDTAVYYCASDTSYTAYGNFYFNLWGQGTLVTVSS
VL: EIVMTQSPSPLSASVGDRVIITCQSSQSVLNNNWLAWYQQKPGKAPKLLIYDASSLASGVPSRFSGSGSGAEFTLTISSLQPDDFATYYCQGEFSCGSADCNAFGQGTKLTVL
notes: Humanized 24D9; also called hu24D9; Parental
- Affinity [2]: 2.07
- Affinity [3]: 1.65

B8: MYT8500 (antibody, V domains shown)
VH: EVQLVESGGGLVQPGGSLRLSCTASGFSFSGSYWICWVRQAPGKGLEWVGCINGGSHDITYYASWAKGRFTISRDTSKNTVYLQKTSLRAEDTAVYYCASDTSYTAYGNFYFNLWGQGTLVTVSS
VL: EIVMTQSPSPLSASVGDRVIITCQSSQSVLNNNWLAWYQQKPGKAPKLLIYDASSLASGVPSRFSGSGSGAEFTLTISSLQPDDFATYYCQGEFSCGSADCNAFGQGTKLTVL
notes: also called hu 24D9 HC Hydrophobicity Variant; hu24D9 HC Dev
- Affinity [2]: 2.21
- Affinity [3]: 1.22
